Reference: EP4803094A2, “GLP-1/GIP DUAL, GLP-1/GCG DUAL AND GLP-1/GIP/GCG TRIPLE RECEPTOR AGONISTS” (Sun Pharmaceutical Industries Limited, priority 2023, dated 2024)
Marks after values point to notes of the source that are not given here.

How the values were obtained:
Rats [1] = test: Oral Glucose Tolerance Test (OGTT) in rats, single injection (blood glucose AUC, body weight, food consumption); type: in vivo; settings: for Food Consumption (g) / Body weight change (%): 30 nM/kg s.c.; for Food Consumption (g): 0-12 hr; for Food Consumption (g) / Body weight change (%) / Blood Glucose AUC(0-120min) Mean: mean (n=4); for Blood Glucose AUC(0-120min) Mean: OGTT 2 g/kg glucose orally, 24 hr post subcutaneous injection of 30 nM/kg; for % Change in Blood glucose AUC(0-120min) vs placebo control: OGTT 24 hr post subcutaneous injection of 30 nM/kg
Protocol: Animals were divided into 6 groups (n=4/group): a placebo control group, Compound 17, (30 nM/kg), Compound 18 (30 nM/kg), Compound 19 (30 nM/kg), Compound 20 (30 nM/kg), and Retatrutide (30 nM/kg). Animals were fasted for 12 hours before initiation of OGTT. After 24 hours of subcutaneous injection of tests or Retatrutide, blood glucose was measured with blood glucometer (time 0 measurement). All the animals were given 2 g/kg of glucose solution orally. Blood glucose was measured at 10, 20, 40, 60, 90, and 120 min following glucose challenge. Body weight and food consumption were recorded at 12 hr, 48 hr and 72 hr.

Rats [2] = test: as above; type: in vivo; settings: 30 nM/kg s.c., mean (n=4); for Body weight change (%): 24 hr
GIPR = target: T1, GIPR (UniProt P48546 22-466, limits assumed); test: cell-based or functional assay
T1 sequence (looked up): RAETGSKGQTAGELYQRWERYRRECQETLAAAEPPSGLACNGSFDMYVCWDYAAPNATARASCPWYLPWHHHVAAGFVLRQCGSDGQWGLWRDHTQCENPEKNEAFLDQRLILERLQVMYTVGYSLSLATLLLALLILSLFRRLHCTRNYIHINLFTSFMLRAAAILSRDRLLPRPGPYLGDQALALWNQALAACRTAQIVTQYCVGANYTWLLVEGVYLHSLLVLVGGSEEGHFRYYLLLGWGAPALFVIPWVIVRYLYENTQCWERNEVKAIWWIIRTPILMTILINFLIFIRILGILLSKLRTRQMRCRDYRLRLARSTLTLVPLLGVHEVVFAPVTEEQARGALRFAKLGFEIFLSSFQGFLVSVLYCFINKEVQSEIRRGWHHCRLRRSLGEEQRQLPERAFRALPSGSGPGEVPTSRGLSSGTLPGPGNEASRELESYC

GCGR = GCGR (UniProt P47871 26-477, limits assumed); test: cell-based or functional assay
GLP-1R = GLP-1R (UniProt P43220 24-463, limits assumed); test: cell-based or functional assay

GCGR, sequence (P47871 26-477 limits assumed): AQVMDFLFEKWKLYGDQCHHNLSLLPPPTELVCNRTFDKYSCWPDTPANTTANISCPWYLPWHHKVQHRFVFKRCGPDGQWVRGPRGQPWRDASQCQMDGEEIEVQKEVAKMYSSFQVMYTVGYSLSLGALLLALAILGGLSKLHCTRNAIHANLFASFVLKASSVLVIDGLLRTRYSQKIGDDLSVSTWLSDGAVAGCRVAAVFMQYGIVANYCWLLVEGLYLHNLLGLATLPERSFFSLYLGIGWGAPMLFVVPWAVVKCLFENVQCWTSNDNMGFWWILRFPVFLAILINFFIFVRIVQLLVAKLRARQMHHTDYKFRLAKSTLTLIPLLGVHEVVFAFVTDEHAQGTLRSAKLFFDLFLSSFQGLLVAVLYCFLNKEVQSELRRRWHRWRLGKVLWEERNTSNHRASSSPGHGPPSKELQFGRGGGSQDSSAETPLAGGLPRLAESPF

Question: What does the source list for `CC[C@H](C)[C@H](NC(=O)[C@H](Cc1ccccc1)NC(=O)[C@H](C)NC(=O)C(C)(C)NC(=O)[C@H](CCC(N)=O)NC(=O)[C@H](C)NC(=O)[C@H](CCCCNC(=O)COCCOCCNC(=O)NCCCCNC(=O)CC[C@H](NC(=O)CCCCCCCCCCCCCCCCCCC(=O)O)C(=O)O)NC(=O)[C@H](CCCCN)NC(=O)[C@H](CC(=O)O)NC(=O)[C@H](CC(C)C)NC(=O)[C@](C)(CC(C)C)NC(=O)[C@@H](NC(=O)[C@H](CO)NC(=O)[C@H](Cc1ccc(O)cc1)NC(=O)[C@H](CC(=O)O)NC(=O)[C@H](CO)NC(=O)[C@@H](NC(=O)[C@H](Cc1ccccc1)NC(=O)[C@@H](NC(=O)CNC(=O)[C@H](CCC(N)=O)NC(=O)C(C)(C)NC(=O)[C@@H](N)Cc1ccc(O)cc1)[C@@H](C)O)[C@@H](C)O)[C@@H](C)CC)C(=O)N[C@@H](CCC(=O)O)C(=O)N[C@@H](Cc1ccc(O)cc1)C(=O)N[C@@H](CC(C)C)C(=O)N[C@@H](CC(C)C)C(=O)N[C@@H](CCC(=O)O)C(=O)NCC(=O)NCC(=O)N1CCC[C@H]1C(=O)N[C@@H](CO)C(=O)N[C@@H](CO)C(=O)NCC(=O)N[C@@H](C)C(=O)N1CCC[C@H]1C(=O)N1CCC[C@H]1C(=O)N1CCC[C@H]1C(=O)N[C@@H](CO)C(N)=O` [Compound 20]?
Answer: Food Consumption (g) (Rats [1]): 1.6*** g; Body weight change (%) (Rats [1]; 48 hr): -4.6*** %; Body weight change (%) (Rats [1]; 72 hr): -2.7*** %; Blood Glucose AUC(0-120min) Mean (Rats [1]): 4472.5***; % Change in Blood glucose AUC(0-120min) vs placebo control (Rats [1]): -53.76%; Food Consumption (g) (Rats [2]; 24-48 hr): 12.8*** g; Food Consumption (g) (Rats [2]; 24-72 hr): 33.1*** g; Body weight change (%) (Rats [2]): -6.0*** %

Question: `CC[C@H](C)[C@H](NC(=O)[C@H](Cc1ccccc1)NC(=O)[C@H](C)NC(=O)C(C)(C)NC(=O)[C@H](CCC(N)=O)NC(=O)[C@H](C)NC(=O)[C@H](CCCCNC(=O)COCCOCCNC(=O)CC[C@H](NC(=O)CCCCCCCCCCCCCCCCCCC(=O)O)C(=O)O)NC(=O)[C@H](CCCCN)NC(=O)[C@H](CC(=O)O)NC(=O)[C@H](CC(C)C)NC(=O)[C@](C)(CC(C)C)NC(=O)[C@@H](NC(=O)[C@H](CO)NC(=O)[C@H](Cc1ccc(O)cc1)NC(=O)[C@H](CC(=O)O)NC(=O)[C@H](CO)NC(=O)[C@@H](NC(=O)[C@H](Cc1ccccc1)NC(=O)[C@@H](NC(=O)CNC(=O)[C@H](CCC(N)=O)NC(=O)C(C)(C)NC(=O)[C@@H](N)Cc1ccc(O)cc1)[C@@H](C)O)[C@@H](C)O)[C@@H](C)CC)C(=O)N[C@@H](CCC(=O)O)C(=O)N[C@@H](Cc1ccc(O)cc1)C(=O)N[C@@H](CC(C)C)C(=O)N[C@@H](CC(C)C)C(=O)N[C@@H](CCC(=O)O)C(=O)NCC(=O)NCC(=O)N1CCC[C@H]1C(=O)N[C@@H](CO)C(=O)N[C@@H](CO)C(=O)NCC(=O)N[C@@H](C)C(=O)N1CCC[C@H]1C(=O)N1CCC[C@H]1C(=O)N1CCC[C@H]1C(=O)N[C@@H](CO)C(N)=O` [Retatrutide, reference compound] was tested. Which “Food Consumption (g)” value (Rats [1]) did it give?
Answer: The value was 0.7*** g.

Question: What about the “Body weight change (%)” value (Rats [1]; 48 hr) of the same molecule?
Answer: The value was -4.5*** %.

Question: And the “Body weight change (%)” value (Rats [1]; 72 hr)?
Answer: The value was -2.5*** %.

Question: What about the “Blood Glucose AUC(0-120min) Mean” value (Rats [1]) of the same molecule?
Answer: The value was 3792.5***.

Question: And the “% Change in Blood glucose AUC(0-120min) vs placebo control” value (Rats [1])?
Answer: Its value is -60.79%.

Question: What about the “Food Consumption (g)” value (Rats [2]; 24-48 hr) of the same molecule?
Answer: The value was 8.6*** g.

Question: What about the “Food Consumption (g)” value (Rats [2]; 24-72 hr) of the same molecule?
Answer: The value was 23.8*** g.

Question: What about the “Body weight change (%)” value (Rats [2]) of the same molecule?
Answer: The value was -6.0*** %.

B1: Compound 12 (peptide)
peptide: YXQGTFTSDYSIXLDKXAQXAFIEYLLEGGPSSGAPPPS
modifications: Aib at 2; αMethyl-Leu at 13; Lys 17 ε-amino acylated with Moiety A; Aib at 20; C-terminal amide (Rink amide resin)
Question: For B1, which “EC50 value, cellular cAMP assay (Hit Hunter cAMP)” value (“EC50 value, cellular cAMP assay” for short) (GIPR) is on record?
Answer: Its value is 12 nM.

Question: And the “EC50 value, cellular cAMP assay” value (GCGR)?
Answer: The value was 6.99 nM.

Question: What about the “EC50 value, cellular cAMP assay” value (GLP-1R) of the same molecule?
Answer: Its value is 12 nM.

B2: Compound 19 (peptide)
peptide: B1 peptide
modifications: Aib at 2; αMethyl-Leu at 13; Lys 17 ε-amino acylated with Moiety C; Aib at 20; C-terminal amide
Question: Which “EC50 value, cellular cAMP assay” value (GIPR) does the source give for B2 here?
Answer: The value was 0.0138 nM.

Question: What about the “EC50 value, cellular cAMP assay” value (GCGR) of the same molecule?
Answer: The value was 0.109 nM.

Question: What about the “EC50 value, cellular cAMP assay” value (GLP-1R) of the same molecule?
Answer: The value was 0.0116 nM.

B3: Compound 20 (peptide)
peptide: B1 peptide
modifications: Aib at 2; αMethyl-Leu at 13; Lys 17 ε-amino acylated with Moiety D; Aib at 20; C-terminal amide
Question: What does the source list for B3?
Answer: EC50 value, cellular cAMP assay (Hit Hunter cAMP) (GIPR): 0.0181 nM; EC50 value, cellular cAMP assay (Hit Hunter cAMP) (GCGR): 0.14 nM; EC50 value, cellular cAMP assay (Hit Hunter cAMP) (GLP-1R): 0.0144 nM

B4: Compound 17 (peptide)
peptide: B1 peptide
modifications: Aib at 2; norvaline at 13; Lys 17 ε-amino acylated with Moiety B; Aib at 20; C-terminal amide
Question: For B4, which “EC50 value, cellular cAMP assay” value (GIPR) is on record?
Answer: The value was 0.0115 nM.

Question: And the “EC50 value, cellular cAMP assay” value (GCGR)?
Answer: Its value is 0.0133 nM.

Question: What about the “EC50 value, cellular cAMP assay” value (GLP-1R) of the same molecule?
Answer: The value was 0.0087 nM.

B5: Compound 18 (peptide)
peptide: B1 peptide
modifications: not fully specified; Aib at 2; norvaline at 13; Lys 17 ε-amino acylated with Moiety G; Aib at 20; C-terminal amide
Question: Which “EC50 value, cellular cAMP assay” value (GIPR) does the source give for B5 here?
Answer: The value was 0.0227 nM.

Question: And the “EC50 value, cellular cAMP assay” value (GCGR)?
Answer: The value was 0.193 nM.

Question: What about the “EC50 value, cellular cAMP assay” value (GLP-1R) of the same molecule?
Answer: The value was 0.0173 nM.

B6: Compound 14 (peptide)
peptide: B1 peptide
modifications: Aib at 2; norleucine at 13; Lys 17 ε-amino acylated with Moiety B; Aib at 20; C-terminal amide
Question: With B6 as the molecule, how does the “EC50 value, cellular cAMP assay” value (GIPR) read?
Answer: The value was 24 nM.

Question: What about the “EC50 value, cellular cAMP assay” value (GCGR) of the same molecule?
Answer: The value was 20.9 nM.

Question: What about the “EC50 value, cellular cAMP assay” value (GLP-1R) of the same molecule?
Answer: Its value is 8.54 nM.

B7: Compound 13 (peptide)
peptide: B1 peptide
modifications: Aib at 2; αMethyl-Leu at 13; Lys 17 ε-amino acylated with Moiety B; Aib at 20; C-terminal amide
Question: With B7 as the molecule, how does the “EC50 value, cellular cAMP assay” value (GIPR) read?
Answer: The value was > 1.5 nM.

Question: What about the “EC50 value, cellular cAMP assay” value (GCGR) of the same molecule?
Answer: Its value is > 1.8 nM.

Question: What about the “EC50 value, cellular cAMP assay” value (GLP-1R) of the same molecule?
Answer: The value was > 2.4 nM.
